Data on 89 variants can be found in IntAct's records for PubMed 29039417.

First the molecules themselves.
B1: BBSome complex member BBS2 (Homo sapiens), Q9BXC9 (parent)
chain: MLLPVFTLKLRHKISPRMVAIGRYDGTHPCLAAATQTGKVFIHNPHTRNQHVSASRVFQSPLESDVSLLSINQAVSCLTAGVLNPELGYDALLVGTQTNLLAYDVYNNSDLFYREVADGANAIVLGTLGDISSPLAIIGGNCALQGFNHEGSDLFWTVTGDNVNSLALCDFDGDGKKELLVGSEDFDIRVFKEDEIVAEMTETEIVTSLCPMYGSRFGYALSNGTVGVYDKTSRYWRIKSKNHAMSIHAFDLNSDGVNELITGWSNGKVDARSDRTGEVIFKDNFSSAIAGVVEGDYRMDGHIQLICCSVDGEIRGYLPGTAEMRGNLMDTSAEQDLIRELSQKKQNLLLELRNYEENAKAELASPLNEADGHRGIIPANTRLHTTLSVSLGNETQTAHTELRISTSNDTIIRAVLIFAEGIFTGESHVVHPSIHNLSSSICIPIVPPKDVPVDLHLKAFVGYRSSTQFHVFESTRQLPRFSMYALTSLDPASEPISYVNFTIAERAQRVVVWLGQNFLLPEDTHIQNAPFQVCFTSLRNGGHLHIKIKLSGEITINTDDIDLAGDIIQSMASFFAIEDLQVEADFPVYFEELRKVLVKVDEYHSVHQKLSADMADHSNLIRSLLVGAEDARLMRDMKTMKSRYMELYDLNRDLLNGYKIRCNNHTELLGNLKAVNQAIQRAGRLRVGKPKNQVITACRDAIRSNNINTLFKIMRVGTASS
partner: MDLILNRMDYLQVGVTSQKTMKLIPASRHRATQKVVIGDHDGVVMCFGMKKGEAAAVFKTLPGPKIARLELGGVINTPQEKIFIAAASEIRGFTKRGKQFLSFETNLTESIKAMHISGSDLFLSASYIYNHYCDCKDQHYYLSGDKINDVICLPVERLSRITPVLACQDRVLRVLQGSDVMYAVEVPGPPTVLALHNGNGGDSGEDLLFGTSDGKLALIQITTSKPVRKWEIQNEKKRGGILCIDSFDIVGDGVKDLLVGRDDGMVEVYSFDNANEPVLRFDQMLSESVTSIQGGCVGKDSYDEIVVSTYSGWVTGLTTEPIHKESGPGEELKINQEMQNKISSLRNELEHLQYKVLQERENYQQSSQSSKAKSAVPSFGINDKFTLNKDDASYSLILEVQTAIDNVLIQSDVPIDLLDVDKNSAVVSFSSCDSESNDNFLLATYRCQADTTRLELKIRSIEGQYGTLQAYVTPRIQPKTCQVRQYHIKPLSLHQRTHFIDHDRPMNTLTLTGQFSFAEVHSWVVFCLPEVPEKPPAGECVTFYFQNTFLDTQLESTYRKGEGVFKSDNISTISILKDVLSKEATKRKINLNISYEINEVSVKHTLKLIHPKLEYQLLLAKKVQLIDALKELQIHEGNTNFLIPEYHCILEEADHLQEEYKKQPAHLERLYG

Variants of B1 are the subject of the assay. The following applies: with BBS7, Q8IWZ6-2.
With V588K, the “effect of a mutation on the interaction” value is “with no effect”. The value for G688R was “disrupting interaction strength”; that for I338K was “with no effect”. Turning to A564R, the “effect of a mutation on the interaction” value is listed as “disrupting interaction strength”. The value for P447E was “disrupting interaction strength”. The value for D371K was “with no effect”. With D371A the entry was “with no effect”; with R374K, “with no effect”. On to P587E, for which the “effect of a mutation on the interaction” value is given as “with no effect”. For the variant F501S, the “effect of a mutation on the interaction” value was “disrupting interaction strength”. The value for Q532E was “with no effect”; that for T487K was “with no effect”; that for Q477K was “with no effect”. For Q477E, the “effect of a mutation on the interaction” value is “with no effect”. The value for Q477A was “with no effect”; that for I441A was “with no effect”; that for S642E was “with no effect”.

G372A: the “effect of a mutation on the interaction” value was “with no effect”.

As for F472K, the “effect of a mutation on the interaction” value is listed as “with no effect”.

For Y484A, the “effect of a mutation on the interaction” value was “disrupting interaction strength”. The value for L538G was “disrupting interaction strength”.

Turning to R622E, the “effect of a mutation on the interaction” value was “with no effect”.

As for C442A, the “effect of a mutation on the interaction” value is on record as “with no effect”. With Q527A the entry was “with no effect”; with T696A, “with no effect”; with T696K, “with no effect”. With Q516E, the “effect of a mutation on the interaction” value is listed as “with no effect”. Consider L710A, for which the “effect of a mutation on the interaction” value is “with no effect”. The value for N500A was “with no effect”. In the case of G542A, the “effect of a mutation on the interaction” value is reported as “with no effect”. The value for S342E was “with no effect”. In the case of S365K, the “effect of a mutation on the interaction” value was “with no effect”. With H604K the entry was “with no effect”; with R480A, “with no effect”; with V499A, “with no effect”. With K609E the entry was “with no effect”.

In the case of N354K, the “effect of a mutation on the interaction” value is on record as “with no effect”. In the case of E629A, the “effect of a mutation on the interaction” value is reported as “with no effect”.

On to Q569A, for which the “effect of a mutation on the interaction” value is listed as “with no effect”.

L350A: the “effect of a mutation on the interaction” value is given as “with no effect”. The value for D616E was “with no effect”. With T385K the entry was “with no effect”; with D490A, “with no effect”; with L685E, “disrupting interaction strength”. With A419E the entry was “with no effect”. For the variant M634K, the “effect of a mutation on the interaction” value is given as “with no effect”.

Turning to S332E, the “effect of a mutation on the interaction” value is reported as “with no effect”. Regarding S388E, the “effect of a mutation on the interaction” value was “with no effect”. With A370K the entry was “with no effect”; with L519A, “with no effect”; with Q581E, “with no effect”. Turning to L654K, the “effect of a mutation on the interaction” value was “with no effect”. For the variant N663K, the “effect of a mutation on the interaction” value is reported as “with no effect”.

As to N663A, the “effect of a mutation on the interaction” value is given as “with no effect”. The value for H384E was “with no effect”; that for E592A was “with no effect”. With N408E the entry was “with no effect”; with Y589K, “with no effect”. With D636A the entry was “with no effect”; with S537A, “with no effect”; with G421K, “with no effect”.

On to A364E, for which the “effect of a mutation on the interaction” value was “with no effect”. For K659A, the “effect of a mutation on the interaction” value is reported as “with no effect”. The value for P366K was “with no effect”; that for L669K was “with no effect”.

For the variant R382A, the “effect of a mutation on the interaction” value is recorded as “with no effect”. With Y498E, the “effect of a mutation on the interaction” value is on record as “with no effect”. Consider L457E, for which the “effect of a mutation on the interaction” value was “disrupting interaction strength”. Regarding R325E, the “effect of a mutation on the interaction” value is on record as “with no effect”. With R325K the entry was “with no effect”; with Q677K, “with no effect”. Consider V510A, for which the “effect of a mutation on the interaction” value is “with no effect”. With P690A, the “effect of a mutation on the interaction” value is “with no effect”.

G670K: the “effect of a mutation on the interaction” value was “with no effect”. H399K: the “effect of a mutation on the interaction” value was “with no effect”.

For the variant V533K, the “effect of a mutation on the interaction” value is “with no effect”. With D700E the entry was “with no effect”; with V687A, “with no effect”; with I546E, “with no effect”. With V626A the entry was “with no effect”; with L624K, “with no effect”. The value for L624A was “with no effect”; that for Q346E was “with no effect”; that for P495A was “with no effect”. As for T406K, the “effect of a mutation on the interaction” value is on record as “with no effect”. With R476A the entry was “with no effect”; with K547A, “with no effect”; with S438A, “with no effect”. With S438K the entry was “with no effect”.
